Target: T1, ErbB2-Domain4 protein (human, UniProt P04626 1-675)
T1 construct: Made in E. coli BL21(DE3) from pET-28a (NdeI/XhoI), dissolved from inclusion bodies in 8 M urea and purified on a Ni column; also called ErbB2-Domain4-encoded protein
Experiment: indirect ELISA, ErbB2-Domain4 protein coated at 100 ng/well, antibody in serial dilution, A450

B1: mouse anti-human ErbB2 monoclonal antibody 10A6 (antibody, mouse IgG1, kappa, V domains shown)
VH: QVTLKESGPGILQPSQTLSLTCSFSGFSLSTSGMGVSWIRQPSGKGLEWLAHIYWDDDKRYNPSLKSRLTISKDSSNKQVFLKFTSVDTADTATYYCAHFAYYNYDGAVDSWGQGTSVTVSS
VL: DIVMSQSPSSLTVSAGEKVSMSCKSSQSLLHSRTRKNYLAWYQQKPGQSPKLLIYWASTRESGVPDRFTGSGSGTDFTLTISSVQAEDLAVYYCKQSYSLYTFGGGTKLEIKR
notes: Mouse IgG1-Kappa, purified from hybridoma supernatant on protein G; also called 10A6 clonal antibody protein
Work on B1 yielded an EC50 of 100 nM.

— patent EP3783015A1 (Beijing DCTY Biotech Co., Ltd., dated 2021)
